Legend:
[1] = test system: KalbTG and S. mobaraensis MTG; assay: dual site-specific labeling with Cy3 and Cy5 labels; type: biochemical; conditions: KalbTG + Cy3 label 30 min, then S. mobaraensis MTG + Cy5 label 15 min
Description: Turning to FIG. 6C, the high sequence specificity of KalbTG was used to conjugate a 6 kDa Cy3 label to the YRYRQ (SEQ ID NO:1) site of a 7 kDa substrate peptide comprising both the KalbTG and S. mobaraensis MTG glutamine-containing motifs. The reaction was run for 30 minutes to saturate the YRYRQ (SEQ ID NO:1) site. Analysis by SDS-PAGE confirmed that the label was integrated at a single site. The substrate peptide was subsequently incubated for 15 minutes with S. mobaraensis MTG and a 6 kDa Cy5 label. […] Accordingly, KalbTG may be useful for the industrial-scale synthesis of complex protein conjugates of interest in therapeutic or diagnostic applications.
For the orthogonal labeling experiment, a molecule containing both KalbTG and MTG Q-tags was chemically synthesized to have the primary chemical structure:
(§1) If not noted otherwise, labeling reactions were performed for 15 minutes at 37° C. in the presence of 72 μM substrate protein, 720 μM label peptide and 1 μM transglutaminase in 200 mM MOPS pH 7.2 and 1 mM EDTA. […] Samples were taken between incubation steps and analyzed by SDS-PAGE, in-gel fluorescence (BioRad ChemiDoc gel documentation system, Cy3 and Cy5 LED and filter sets). […] The mixture was filtered (0.2 μm spin filter) and analyzed by LC-MS with UV detection at 214 nm and 305 nm.

[2] = test system: Z-[GGGYRYRQGGGG (SEQ ID NO:75)]-OH; assay: GLDH assay of transglutaminase enzyme activity after storage; type: biochemical; conditions: as measured by GLDH assay
Description: A further experiment was performed to determine the activity of KalbTG enzymes prepared from two different constructs, and stored at two different temperatures. The KalbTGt3 (SEQ ID NO:10) and KalbTGt1 (SEQ ID NO: 12) enzymes tested were obtained respectively from the EcSlyD2-Xa-KalbTGt3-8×His-tag construct (SEQ ID NO:8) and the EcSlyD2-Xa-KalbTGt1-8×His-tag construct (SEQ ID NO:11) described in Example 3. The activity of the two KalbTG enzymes was tested after storage at either 4° C. or −20° C. and compared against the activity of commercially available S. mobaraensis MTG according to a published protocol (Oteng-Pabi, et al., 2013. Analytical biochemistry 441(2): 169-173). In particular, assays were performed at 37° C. in 200 μl total volume. The assay mixture included 200 mM MOPS, 1 mM EDTA, and 1 mM DTT at pH 7.4. Further, α-ketoglutarate and NADH were added at a concentration of 500 μM, along with 2 U/ml GLDH, and between 0.1 μg and 1.0 μg of one of the transglutaminase enzymes. The glutamine substrate was 200 μM Z-[[…] (SEQ ID NO:75)]-OH, and the amine donor was 10 mM cadaverine, where Z represents a carboxybenzyl group. All data were collected in triplicate (average of 3 wells in a microtiter plate) and baseline activity (buffer without enzyme) subtracted.

KalbTG = assay: Cy3 labeling of Q-tagged SlyD/FKBP scaffold, SDS-PAGE; type: biochemical, Kutzneria albida
Text: Next, the array and in-solution data were applied to perform site-specific labeling on protein substrates. The molecular chaperone SlyD is a useful scaffold for labeling approaches as epitope-containing loops can be grafted onto the FKBP domain for presentation to binders or enzymes (PCT App. Pub. No. WO 2012/150321 A1 to Andres et al.). A chimeric protein consisting of the Thermus thermophilus FKBP domain and the KalbTG recognition sequence RYRQR (SEQ ID NO:14) was produced. Labeling with a ten-fold excess of KalbTG K-tag-Cy3 and a substrate to enzyme ratio of 72:1 afforded approximately 70% yield of a labeled protein species after 15 minutes (FIG. 6A). This yield remained constant over a time-course of 60 minutes. […] The molecular weight shift from 13 kDa to 19 kDa was observed on the SDS-PAGE gel, corresponding exactly to the incorporation of a single 6 kDa label molecule. […]
as §1

[3] = differential scanning calorimetry (DSC); type: physicochemical; conditions: purified and activated enzyme
Description: Initial screening at the 5 ml scale provided clear evidence that proteins with the anticipated electrophoretic mobility of full length KalbTG fusions were expressed, and that a fusion with tandem SlyD chaperones (Scholz, et al. 2005. Journal of Molecular Biology 345(5): 1229-1241) yielded the highest amount of soluble protein among all the constructs tested (FIG. 3A). The expression of this construct was further optimized by screening different incubation times and temperatures, Isopropyl β-D-1-thiogalactopyranoside (IPTG) inducer concentrations and induction times, media types and volumes. With reference to FIGS. 3B and 3C, the modular nature of the chosen fusion construct afforded the SlyD fusion protein, the pro-enzyme, and the activated enzyme by a combination of sequential purification and proteolytic cleavage steps. The expression construct 200 included, starting from N-terminus, two sequential SlyD chaperones 202, a factor Xa protease cleavage site (C1), the KalbTG pro-peptide 204, a trypsin protease cleavage site (C2) the KalbTG enzyme 206, and an 8×-histidine tag 208. The SlyD chaperones 202 are cleaved from the expression construct 200 with a factor Xa protease 210. […] The melting point of the purified and activated enzyme was determined to be 48.9° C. using differential scanning calorimetry (DSC). […]

Z-[GGGYRYRQGGG (SEQ ID NO: 101)]-PEG27-[GIEGRG (SEQ ID NO: 102)]-PEG27-PEG27-[GGGDYALQGG (SEQ ID NO: 103)]-OH
yield of dually labeled construct [1]: nearly quantitative yield

B1: KalbTG: Kutzneria albida microbial transglutaminase (protein)
chain: MHKWFLRAAVVAAVGFGLPTLIATTAQAAAVAAPTPRAPLAPPLAEDRSYRTWRVEDYVEAWERYHGREMTEDERENLARGCIGVTVVNLNREDLSNPPLNLSFGSLRTAEAVQAALNKIVDTHPSPAQYEAAVAKDPILKRLKNVVKALPSWIDSAKLKASIFSKRFYSWQNPDWSEERAHTTYRPDRETDQVDMSTYRYRARPGYVNFDYGWFDQDTNTWWHANHEEPRMVVYQSTLRHYSRPLQDFDEQVFTVAFAKKD
modifications: Hypothetical_transglutaminase
notes: Kutzneria albida microbial transglutaminase
increase in KalbTG enzymatic activity by purification process with ammonium chloride [2]: up to 9 fold
pH of highest labeling efficiency (KalbTG; 15 minute reaction, pH 6.2 to 9.0 tested): 7.4
melting point (DSC) [3]: 48.9 °C

B2: FKBP domain RYRQR: chimeric protein of Thermus thermophilus FKBP domain and KalbTG recognition sequence RYRQR (protein)
chain: MKVGQDKVVTIRYTLQVEGEVLDQGELSYLHGHRNLIPGLEEALEGREEGEAFQAHVPAEKAYGAGSGGGGRYRQRGGGGGSSGKDLDFQVEVVKVREATPEELLHGHAHHHHHHHH
modifications: synthetic peptide sequence - KalbTG acyl-donor sequence grafted onto the FKBP domain of SlyD; FKBP_domain; acyl-donor_tag; 8xHis_tag
yield of labeled protein species / incorporation of label (KalbTG; ten-fold excess KalbTG K-tag-Cy3, substrate to enzyme ratio 72:1, after 15 minutes): approximately 70%

Reference: patent US11054425B2, “System and method for identification and characterization of transglutaminase species” (Roche Sequencing Solutions, Inc., priority 2014, dated 2021)
